Source: the nanobody polyreactivity screen of Harvey et al. (2022)

experiment: yeast display, Sf9 membrane polyspecificity reagent, FACS + sequencing; frameworks hold sequencing errors
In short: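 After 36–48 hours of galactose induction, yeast (Saccharomyces cerevisiae BJ5465) displaying a synthetic nanobody library were stained at 4 °C for 1 hour with 10% biotinylated, detergent-solubilized Sf9 membrane reagent. Streptavidin microbeads enriched the stained cells before FACS sorting into low and high (top ~1%) gates on anti-HA and streptavidin fluorescence. Each clone's polyreactivity label reflects its gate of origin.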

Sequence | polyreactivity (PSR sort gate)
QVQLVESGGALVQAGGSLRLSCAASGRIFLKYTMGWYRQAPGKERELVAAISRGGSTYYADSVKGRFTISRDNAKNTVYLQMNSLKPEDTAVYYCAATSYRRTGYNYWGQGTQVTVSS | high polyreactivity
QVQLVESGGALVQAGGSLRLSCAASGRTFAVNAMGWYRQAPGKEREFVAAISKRGGSTYYADSVKGRFTISRDNAKNTVYLQMNSLTPEDTAVYYCAADYTKHYWGQGTQVTVSS | high polyreactivity
QVQLVESGGALVQAGGSLRLSCAASGRTFGINAMGWYRQAPGKERELVAAIRTGGSTYYADSVKGRFTISRDNAKNTVYLQMNSLKPADTAVYYCAAKAYRRYTIPPYGYWGQGTQVTVSS | high polyreactivity
QVQLVESGGALVQAGGSLRLSCAASGRTFGSYAMGWDRQAPGKESELVAAISRRGGSTYYADSVKGRFTISRDNAKNTVYLQLNSLKPEDSAVYYCAVRKASDYYYWGQGTQVTVSS | high polyreactivity
QVQLVESGGALVQAGGSLRLSCAASGRTFYNYAMGWYRQAPGKEREFVASITTSGGSTYYADSVKGRFTISRDNAKNTVYLQMNSLIPEDTAVYYCARRAYRSWTRNSYEYYYWGQGTQVTVSS | high polyreactivity
QVQLVESGGALVQAGGSLRLSCAASGSIFFENAMGWYRPAPGKERELVAAIRSGVDTYYADSVKGRFTLSRDNAKNTVYLQMNSLKPQDTAVYNCNADAYYYYAIWWSEVDYWGQGTQVTVSS | low polyreactivity
QVQLVESGGALVQAGGSLRLSCAASGSIFYWYAMGWYRQAPGKEREFVAGITGRGGSTYYADSVKGRFTISRDNAKNTVYLQMNSLKPEDTAVYYADFVKYGKYYQRYDYWGQGTQVTVSS | high polyreactivity
QVQLVESGGALVQAGGSLRLSCAASGSTFYSYAMGWYRQAPGKERELVAVISTGDTTDYADSVKGRFTISRDNAKNTVNLQMNSLKPEDTAVYYCNAPSYWYYPVLGSFLTFDYWGQGTQVTVSS | low polyreactivity
QVQLVESGGALVQAGGSLRLSCAASGYTFFYYAMGWYRQARGKERVLVAIDLNGGSTYYADSVKGRFTISRDNEKNTVYLQINSLKPEDTAVYYCNAKTSIGTWVGDDYWGQGTQVTVSS | low polyreactivity
QVQLVESGGALVQAGGSLRLSCAAYGRIFLVYAMGWSRQAPGKEREMVAAISWSTGSTYYADSVKGRFTISRDNAKNTVYLQMNSLKPEDTAVYYCAAEPELDEYEHDYWGQGTQVTVSS | low polyreactivity
QVQLVESGGALVQAGGSLRLSCAYTGLIFGLYAMGWYTQAPGQERDFVAAITSVTSTYYADSVKGRFTISRDNAKNTFFLQMISLKPEDTAVYYCAADSPVDYLYALYLSVRDDYWGHGTQVTVSS | low polyreactivity
QVQLVESGGALVQAGGSLRLTCAASGSTFWDNSMGWYRQAPGKEREFVADITAIGGTTYYADSVKGRFTISRDNAQNTVYLQMNSLKPEDTAVYYCAADWTTYGFSYFSIYYYWGQGTQVTVSS | low polyreactivity
QVQLVESGGAVVHAGGSLRLSCAASGFTFRYYDKGWYRQAHGKEMELVAAISSGGSTDYADSVKGRFTISRDNAKNTVYLQMNCLKPEDNAVYYCAADWWVVYTYDYWGPGTQVTVSS | low polyreactivity
QVQLVESGGCIDQAGGSLRLSCAASGSNFRGYAKGWYRQAPGKERELVAAITWSGGSTYYADSVKGRFTISRDKAKNTVSLQMNSLKPEDTAVYYCAAEYWDSDTYDYCGQGTQVTVSS | low polyreactivity
QVQLVESGGCIVQAGGSLRLSCAASGNIFYRNAMGWYRQAPGKERELVAAISSGGITYYADYVKGRFTISRDNAKNTVYLQMNSLKPDDTAVYYCAAYIRNCRATYEYWGPGTQVTVSS | high polyreactivity
QVQLVESGGCIVQAGGSLRLSCAASGRIFKLYAMGWYRQAPGKERELVAAITTSGGSTYYADSVKGRFTISRDNAKNTVSLEMNSLIPEDTAGYYCNARAVRYPFTGNYWGQGTQVTVSS | high polyreactivity
QVQLVESGGCKVQAGGSLRISCAASGRIFGYYMGWYRQAPGKEREMVARITFRGGSTYYADSVKGRFTNSRDNAKNNVYLQMNSLKPEDTAVYYCNARGKGGSTNRSDYWGQGTQVTVSS | high polyreactivity
QVQLVESGGCLDQAGGSLRLSCAASGFTLHSYAMGWYRQAPGKERELVAAITTGGSTYYADSVKGRLTISRDNAKNTVYLQMNSLKPEDTAVYYCAAEDPGPYGGYVYWGQGTQVTVSS | low polyreactivity
QVQLVESGGCLFQAGASLRLSCAASGRILAYYAMGWYRQAPGKERELVAAITSGGRTYYADSVKGRFTISRDNAKNTVYLQMNSLKPEDTAVYYCNRVTGYDSGDGYWGQGTQVTVSS | high polyreactivity
QVQLVESGGCLVEAGGSLRLSCAASGRIFVHKAMGWYRQAPGKEREFVAAISLRGGSTYYADSVKGRFTISRDNAKNTVYLQMNFLKPEVTAVYYCAAVPAHFYGYDYWGQGTQVTVSS | low polyreactivity
QVQLVESGGCLVHAGGSHRLRCAASGSTFSRYAMGWYRHAPGKERELVAAISSSGGSTYYADSVKGRFTISRDNAKNTVYLQMNSLKPEDTAVYYCAARIWRTRRYDYWGQGTQVTVSS | high polyreactivity
QVQLVESGGCLVQAGGRLRLSCAASGRIFYWNDMGWYRQAPGKERELVAAIDFSGASTYYADSVKGRFTISRDNAKNTVYLEMNSLKPEDTAVYYCAAYQRRGKYQMDYWGQGTQVTVSS | low polyreactivity
QVQLVESGGCLVQAGGRLRLSCAASGSTFAYYSMGWDRQAPGKERELVAAITDSGGSTYYADSVKGRFTISRDNAKNTVYLQMNSLIPEDTAVYYCAVYGPWAYYPMGYWGQGSQVTVSS | low polyreactivity
QVQLVESGGCLVQAGGRLRLSCAPSGFTFRKYAMGWYRQAPGKERQLVAAITANGGRTYNADSVKGRFTISRDNAKYTDYLKMNSLKPEDTSVYYCYARPSRGFRPRSAYGYWGQGTQVTVSS | high polyreactivity
QVQLVESGGCLVQAGGSHRLSCAASGFIFYRYAMGWYRQAPGKERELVAAISGSGGRTYYADSVKGRFTISRDNAKNTVYLQMNSLKPEDTAVYYCAADKQAYVTDDYWGQGTQVTVSS | high polyreactivity
QVQLVESGGCLVQAGGSIRLSCAASGSILGFNAMGWSRQAPGKERELVAAISTSGSSTYYADSVKGRFTISRDNATISVYLLMNSLIPEDTAVYYCAKRRGGSRPYYYWGQRTQVTVSS | high polyreactivity
QVQLVESGGCLVQAGGSLRFSCAASGLTLFRYAMGWYRQAPGKERELVAAIDYGGGTYYADSVKGRFRISRDNAKNTVYLQMNSLKPEDTAVYYCAVEPEYKYYEGDYWGQGTQVNVSS | low polyreactivity
QVQLVESGGCLVQAGGSLRLSCAASGFIFPPNAMGWYRQAPGKERELVASISSSGGSTYYADSVKGRFTISRDNAKNTVYLQMNSLKPEDTAVYYCAADWFYGWGKYDYWGQGTQVTVSS | low polyreactivity
QVQLVESGGCLVQAGGSLRLSCAASGFIIRYYAMGWYRQAPGKERELDAAITRGGSTYYADSVKGRFRISRDNAKNTVYLQMNSLNPEDTAVYYCAARLYTQYYYWGQGTQVNVSS | high polyreactivity
QVQLVESGGCLVQAGGSLRLSCAASGFTFGPYAMGWYRQARGKERELVATLRSGDSTNYADSVKGRFTISRDNAKNTVYLQMNSVKPDDTAVYYCAVSYLSTMGRSRYEYWGQGTQVTVSS | low polyreactivity
